According to paper PMC2197187 (Acta Crystallographica Section F: Structural Biology and …, 2006):

What was measured:
mass spectrometry = target: the molecule itself; test: mass spectrometry
SEC = target: the molecule itself; test: SEC

B1: Sso6206, recombinant, His tag cleaved by TEV protease (natural protein, Sulfolobus solfataricus P2)
chain: GAMAIRRLVLDVLKPIRGTSIVDLAERISKLDGVEGVNISVTDMDVETMGLMIIIEGTSLNFDDIRKMLEEEGCAIHSIDEVVSGNRIIEGKIKDDL
Mass spectrometry
  stoichiometry N: ≤ 6
SEC
  stoichiometry N: > 10 monomers per protomer
